# In paper PMC1331985 (Nucleic Acids Research, 2006):
# Numbering of substitutions follows the chain as printed. Names may count otherwise.
# B1: Est3p-K71A (natural protein, S. cerevisiae, UniProt Q03096 1-181, looked up)
# chain: MPKVILESHSKPTDSVFLQPWIKALIEDNSEHDQYHPSGHVIPSLTKQDLALPHMSPTILTNPCHFAKITAFYNVCDYKVYASIRDSSHQILVEFSQECVSNFERTHNCRITSETTNCLMIIGDADLVYVTNSRAMSHFKICLSNISSKEIVPVLNVNQATIFDIDQVGSLSTFPFVYKYL
# B2: Est3p-F72A (natural protein, S. cerevisiae, UniProt Q03096 1-181, looked up)
# chain: B1 chain with A71K, F72A
# B3: Est3p-E104A (natural protein, S. cerevisiae, UniProt Q03096 1-181, looked up)
# chain: B1 chain with A71K, E104A
# B4: Est3p-T115A (natural protein, S. cerevisiae, UniProt Q03096 1-181, looked up)
# chain: B1 chain with A71K, T115A
# B5: Est3p-K3A (natural protein, S. cerevisiae, UniProt Q03096 1-181, looked up)
# chain: B1 chain with K3A, A71K
# B6: Est3p-S87A (natural protein, S. cerevisiae, UniProt Q03096 1-181, looked up)
# chain: B1 chain with A71K, S87A
# Target: the molecule itself
# Assay: SEC
row,Protein,binding result
1,B1,binds
2,B2,binds
3,B3,binds
4,B4,binds
5,B5,binds
6,B6,binds
